What was measured:
Assay in all cases: holdup assay
Parameters in all cases: key: below the threshold = too weak to quantify, mostly under pKd 3.1 to 4
Conditions in all cases: plain residues with an end cap or a label only (N-terminal biotin on a linker: ado-ado)
GRIP1_7, Q9Y3R0 = target: T1, GRIP1_7, Q9Y3R0
T1 sequence (Q9Y3R0 999-1096, limits assumed, looked up): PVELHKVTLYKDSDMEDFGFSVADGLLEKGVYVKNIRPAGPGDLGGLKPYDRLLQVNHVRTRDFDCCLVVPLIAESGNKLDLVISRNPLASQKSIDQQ

SYNJ2BP, P57105 = target: T2, SYNJ2BP, P57105
T2 sequence (P57105 8-110, limits assumed, looked up): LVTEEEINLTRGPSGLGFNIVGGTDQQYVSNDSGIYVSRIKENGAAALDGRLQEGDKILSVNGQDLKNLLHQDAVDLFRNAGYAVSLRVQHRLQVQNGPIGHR

MAGI1_2, Q96QZ7 = target: MAGI1_2, Q96QZ7
GRIP1_3, Q9Y3R0 = target: T3, GRIP1_3, Q9Y3R0
T3 sequence (Q9Y3R0 247-346, limits assumed, looked up): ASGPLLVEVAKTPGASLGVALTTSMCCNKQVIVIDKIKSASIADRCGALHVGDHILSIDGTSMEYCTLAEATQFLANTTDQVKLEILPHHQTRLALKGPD

GRID2IP_1, A4D2P6 = target: GRID2IP_1, A4D2P6
DFNB31_2, Q9P202 = target: T4, DFNB31_2, Q9P202
T4 sequence (Q9P202 274-371, limits assumed, looked up): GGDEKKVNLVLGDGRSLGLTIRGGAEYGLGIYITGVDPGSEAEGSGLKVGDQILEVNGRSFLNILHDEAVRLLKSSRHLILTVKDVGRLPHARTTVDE

GRIP2_3, Q9C0E4 = target: GRIP2_3, Q9C0E4
PDZD7_3, Q9H5P4 = target: T5, PDZD7_3, Q9H5P4
T5 sequence (Q9H5P4 857-944, limits assumed, looked up): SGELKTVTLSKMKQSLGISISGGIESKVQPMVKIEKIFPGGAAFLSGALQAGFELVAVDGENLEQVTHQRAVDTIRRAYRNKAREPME

NHERF2_2, Q15599 = target: NHERF2_2, Q15599
PTPN13_1, Q12923 = target: T6, PTPN13_1, Q12923
T6 sequence (Q12923 1088-1188, limits assumed, looked up): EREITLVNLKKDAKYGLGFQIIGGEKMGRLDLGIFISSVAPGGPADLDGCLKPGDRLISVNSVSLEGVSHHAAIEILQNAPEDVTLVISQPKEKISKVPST

SHANK1, Q9Y566 = target: T7, SHANK1, Q9Y566
T7 sequence (Q9Y566 658-767, limits assumed, looked up): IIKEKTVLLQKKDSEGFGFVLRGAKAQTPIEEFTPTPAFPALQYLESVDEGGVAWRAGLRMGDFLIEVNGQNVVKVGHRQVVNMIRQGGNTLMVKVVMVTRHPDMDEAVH

CASK, O14936 = target: CASK, O14936
Inadl_8, Q8NI35 = target: Inadl_8, Q8NI35
MPDZ_12, O75970 = target: T8, MPDZ_12, O75970
T8 sequence (O75970 1857-1958, limits assumed, looked up): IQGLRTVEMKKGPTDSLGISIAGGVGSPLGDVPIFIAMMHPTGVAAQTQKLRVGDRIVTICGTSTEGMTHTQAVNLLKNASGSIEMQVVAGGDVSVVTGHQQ

MAGI1_1, Q96QZ7 = target: MAGI1_1, Q96QZ7
APBA2_2, Q99767 = target: T9, APBA2_2, Q99767
T9 sequence (Q99767 654-744, limits assumed, looked up): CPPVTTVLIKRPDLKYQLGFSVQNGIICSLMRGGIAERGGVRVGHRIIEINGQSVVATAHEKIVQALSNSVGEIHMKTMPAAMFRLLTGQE

MAST1, Q9Y2H9 = target: MAST1, Q9Y2H9
DLG4_3, P78352 = target: DLG4_3, P78352
TJP1_3, Q07157 = target: TJP1_3, Q07157
FRMPD2_2, Q68DX3 = target: FRMPD2_2, Q68DX3
APBA1_1, Q02410 = target: T10, APBA1_1, Q02410
T10 sequence (Q02410 651-752, limits assumed, looked up): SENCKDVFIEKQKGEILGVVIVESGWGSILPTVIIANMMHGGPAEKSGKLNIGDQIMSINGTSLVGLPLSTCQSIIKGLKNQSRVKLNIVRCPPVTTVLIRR

MPP6, Q9NZW5 = target: T11, MPP6, Q9NZW5
T11 sequence (Q9NZW5 125-219, limits assumed, looked up): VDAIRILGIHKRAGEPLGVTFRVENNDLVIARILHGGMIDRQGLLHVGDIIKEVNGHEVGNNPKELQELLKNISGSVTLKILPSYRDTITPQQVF

GOPC, Q9HD26 = target: GOPC, Q9HD26
PDZRN4_1, Q6ZMN7 = target: PDZRN4_1, Q6ZMN7
DLG4_2, P78352 = target: DLG4_2, P78352
DFNB31_3, Q9P202 = target: T12, DFNB31_3, Q9P202
T12 sequence (Q9P202 811-907, limits assumed, looked up): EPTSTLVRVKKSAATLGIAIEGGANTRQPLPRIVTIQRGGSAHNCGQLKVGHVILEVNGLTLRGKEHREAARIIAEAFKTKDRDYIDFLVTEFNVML

Sequence of NHERF2_2, Q15599 (Q15599 142-238): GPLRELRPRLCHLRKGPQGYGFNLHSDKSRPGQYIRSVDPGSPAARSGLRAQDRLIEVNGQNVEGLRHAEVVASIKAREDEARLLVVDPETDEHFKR
Sequence of GRID2IP_1, A4D2P6 (A4D2P6 1-87): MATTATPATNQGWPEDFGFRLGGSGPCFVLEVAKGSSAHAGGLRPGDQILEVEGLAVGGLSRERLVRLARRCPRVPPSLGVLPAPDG
Sequence of MAGI1_2, Q96QZ7 (Q96QZ7 456-580): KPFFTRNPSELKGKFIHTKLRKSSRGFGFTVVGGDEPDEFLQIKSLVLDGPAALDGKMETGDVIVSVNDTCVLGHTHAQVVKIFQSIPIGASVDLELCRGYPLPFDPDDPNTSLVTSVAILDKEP
Sequence of FRMPD2_2, Q68DX3 (Q68DX3 944-1038): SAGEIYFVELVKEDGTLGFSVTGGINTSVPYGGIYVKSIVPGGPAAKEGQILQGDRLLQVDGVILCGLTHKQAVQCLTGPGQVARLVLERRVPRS
Sequence of PDZRN4_1, Q6ZMN7 (Q6ZMN7 213-318): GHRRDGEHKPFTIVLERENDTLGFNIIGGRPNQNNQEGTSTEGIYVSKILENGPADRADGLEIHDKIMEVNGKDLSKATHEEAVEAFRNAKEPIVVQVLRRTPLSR
Sequence of DLG4_2, P78352 (P78352 155-259): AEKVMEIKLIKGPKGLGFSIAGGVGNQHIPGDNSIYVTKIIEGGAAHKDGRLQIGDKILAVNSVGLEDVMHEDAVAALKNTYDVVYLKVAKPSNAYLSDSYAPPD
Sequence of DLG4_3, P78352 (P78352 306-403): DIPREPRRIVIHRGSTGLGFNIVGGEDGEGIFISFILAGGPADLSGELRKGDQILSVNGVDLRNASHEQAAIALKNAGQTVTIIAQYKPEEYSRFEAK
Sequence of MAST1, Q9Y2H9 (Q9Y2H9 962-1065): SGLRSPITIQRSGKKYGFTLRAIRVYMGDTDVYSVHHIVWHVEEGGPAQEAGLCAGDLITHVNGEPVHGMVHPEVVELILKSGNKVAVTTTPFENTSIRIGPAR
Sequence of Inadl_8, Q8NI35 (Q8NI35 1425-1530): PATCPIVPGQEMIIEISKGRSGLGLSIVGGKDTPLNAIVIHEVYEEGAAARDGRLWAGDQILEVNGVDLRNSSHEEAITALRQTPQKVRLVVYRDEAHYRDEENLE
Sequence of GRIP2_3, Q9C0E4 (Q9C0E4 238-339): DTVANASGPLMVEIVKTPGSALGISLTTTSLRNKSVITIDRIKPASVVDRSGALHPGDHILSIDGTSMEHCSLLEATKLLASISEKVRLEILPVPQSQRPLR
Sequence of CASK, O14936 (O14936 487-570): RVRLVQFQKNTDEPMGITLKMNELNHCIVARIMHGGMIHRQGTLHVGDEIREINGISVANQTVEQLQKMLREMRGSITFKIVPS
Sequence of TJP1_3, Q07157 (Q07157 416-512): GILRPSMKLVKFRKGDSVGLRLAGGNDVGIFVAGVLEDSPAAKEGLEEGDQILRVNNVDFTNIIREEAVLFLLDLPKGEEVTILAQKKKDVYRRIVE
Sequence of MAGI1_1, Q96QZ7 (Q96QZ7 1-106): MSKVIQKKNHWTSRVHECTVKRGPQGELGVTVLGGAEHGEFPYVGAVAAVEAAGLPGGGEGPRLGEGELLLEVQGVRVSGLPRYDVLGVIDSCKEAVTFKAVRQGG

| Binder | pKd (GRIP1_7, Q9Y3R0) | pKd (SYNJ2BP, P57105) | pKd (MAGI1_2, Q96QZ7) | pKd (GRIP1_3, Q9Y3R0) | pKd (GRID2IP_1, A4D2P6) | pKd (DFNB31_2, Q9P202) | pKd (GRIP2_3, Q9C0E4) | pKd (PDZD7_3, Q9H5P4) | pKd (NHERF2_2, Q15599) | pKd (PTPN13_1, Q12923) | pKd (SHANK1, Q9Y566) | pKd (CASK, O14936) | pKd (Inadl_8, Q8NI35) | pKd (MPDZ_12, O75970) | pKd (MAGI1_1, Q96QZ7) | pKd (APBA2_2, Q99767) | pKd (MAST1, Q9Y2H9) | pKd (DLG4_3, P78352) | pKd (TJP1_3, Q07157) | pKd (FRMPD2_2, Q68DX3) | further results |
| --- | --- | --- | --- | --- | --- | --- | --- | --- | --- | --- | --- | --- | --- | --- | --- | --- | --- | --- | --- | --- | --- |
| EVEEFPETSV [TRPV3, Q8NET8] | 3.48 | 5.2 | 3.63 | 3.49 | 3.7 | 3.5 | below the threshold | 4.82 | 3.72 | 3.58 | 3.94 | below the threshold | 3.86 | below the threshold | 3.63 | below the threshold | 4.21 | 4.2 | 3.5 | 5.16 | pKd (APBA1_1, Q02410): below the threshold; pKd (MPP6, Q9NZW5): below the threshold; pKd (GOPC, Q9HD26): 4.22; pKd (PDZRN4_1, Q6ZMN7): 4.98; pKd (DLG4_2, P78352): 4.4; pKd (DFNB31_3, Q9P202): below the threshold |
| SAKVRTVTSV [RASL11B, Q9BPW5] | below the threshold | 4.95 | 5.51 | below the threshold | below the threshold | below the threshold | below the threshold | 4.68 | below the threshold | below the threshold | below the threshold | below the threshold | 4.43 | below the threshold | 3.52 | below the threshold | 4.77 | 4.93 | below the threshold | 3.97 | pKd (APBA1_1, Q02410): below the threshold; pKd (MPP6, Q9NZW5): below the threshold; pKd (GOPC, Q9HD26): 4.07; pKd (PDZRN4_1, Q6ZMN7): below the threshold; pKd (DLG4_2, P78352): 5.08; pKd (DFNB31_3, Q9P202): below the threshold |
| PDGQCTVTEV [RNF146, Q9NTX7] | 3.51 | 4.75 | 3.53 | below the threshold | below the threshold | below the threshold | below the threshold | 5.09 | 3.89 | below the threshold | below the threshold | below the threshold | 4.13 | below the threshold | below the threshold | below the threshold | 4.8 | 3.5 | below the threshold | 4.44 | pKd (APBA1_1, Q02410): below the threshold; pKd (MPP6, Q9NZW5): 3.92; pKd (GOPC, Q9HD26): 4.04; pKd (PDZRN4_1, Q6ZMN7): below the threshold; pKd (DLG4_2, P78352): 5.07; pKd (DFNB31_3, Q9P202): 3.99 |
| PAPSSGKDYV [CLDN1, O95832] | 3.87 | below the threshold | below the threshold | below the threshold | below the threshold | below the threshold | below the threshold | below the threshold | below the threshold | below the threshold | below the threshold | below the threshold | 3.92 | below the threshold | 3.55 | below the threshold | 3.51 | below the threshold | below the threshold | below the threshold | pKd (APBA1_1, Q02410): below the threshold; pKd (MPP6, Q9NZW5): 3.88; pKd (GOPC, Q9HD26): below the threshold; pKd (PDZRN4_1, Q6ZMN7): below the threshold; pKd (DLG4_2, P78352): below the threshold; pKd (DFNB31_3, Q9P202): below the threshold |
| NHSSSPETTA [TRMT13, Q9NUP7] | below the threshold | below the threshold | below the threshold | below the threshold | below the threshold | below the threshold | below the threshold | below the threshold | below the threshold | below the threshold | below the threshold | below the threshold | below the threshold | below the threshold | below the threshold | below the threshold | 3.55 | below the threshold | below the threshold | below the threshold | pKd (APBA1_1, Q02410): below the threshold; pKd (MPP6, Q9NZW5): below the threshold; pKd (GOPC, Q9HD26): below the threshold; pKd (PDZRN4_1, Q6ZMN7): below the threshold; pKd (DLG4_2, P78352): below the threshold; pKd (DFNB31_3, Q9P202): below the threshold |
